The values below come from PMC3295803.

Assay in all cases: pressure-induced dissociation followed by light scattering; recombinant oligomers 0.2 mg/ml in 25 mM Tris pH 7.5, 25°C, 1 to 3000 bar in steps of 270 bar and back; without or with 2-mercaptoethanol
Assay [1] addresses AgB recombinant subunit rAgB8/1 (Echinococcus granulosus).
Assay [2] deals with AgB recombinant subunit rAgB8/2 (Echinococcus granulosus).
The target in assay [3] is AgB recombinant subunit rAgB8/3 (Echinococcus granulosus).

As to AgB recombinant subunit rAgB8/1, in assay [1], the decrease of the light scattering signal after compression amounted to 60%.

As to AgB recombinant subunit rAgB8/2, in assay [2], the decrease of the light scattering signal after compression came out at 30%.

Turning to AgB recombinant subunit rAgB8/3, the decrease of the light scattering signal after compression in assay [3] was found to be 30%.
